Experimental data published in patent publication US20070020327A1.
Like-named read-outs stand apart in the source and are kept apart here.

Tests used:
[1] = target: HLA-A*0301 (human); assay: competition with 125I-labeled standard peptide for purified HLA-A*0301, gel filtration
[2] = target: HLA-A*0301 (human); assay: competition with radiolabeled standard peptide on purified HLA-A*0301, gel filtration; details: scale: ratio
[3] = target: HLA-A*0203 (human); assay: inhibition of 125I-labelled probe peptide binding to purified HLA; gel filtration
[4] = target: HLA-A*0201 (human); assay: as above
[5] = target: HLA-A*0206 (human); assay: as above; details: remark: other sources report otherwise
[6] = target: HLA-A*0202 (human); assay: as above
[7] = target: HLA-A*6802 (human); assay: as above
[8] = target: HLA-A*6802 (human); assay: inhibition of 125I-labelled probe peptide binding to purified HLA, gel filtration; details: remark: other sources report otherwise
[9] = target: HLA-A*0203 (human); assay: as above; details: remark: other sources report otherwise
[10] = target: HLA-A*0201 (human); assay: as above; details: remark: other sources report otherwise
[11] = target: HLA-A*0202 (human); assay: as above; details: remark: other sources report otherwise
[12] = target: HLA-A*0206 (human); assay: as above; details: remark: other sources report otherwise
[13] = target: HLA-A*0206 (human); assay: competition with 125I standard peptide for purified HLA; gel filtration
[14] = target: HLA-A*0203 (human); assay: as above
[15] = target: HLA-A*0201 (human); assay: as above
[16] = target: HLA-A*0202 (human); assay: as above
[17] = target: HLA-A*0203 (human); assay: competitive inhibition of 125I-labelled standard peptide binding to purified HLA, gel filtration
[18] = target: HLA-A*0201 (human); assay: as above
[19] = target: HLA-A*0202 (human); assay: as above
[20] = target: HLA-A*0206 (human); assay: as above
[21] = target: HLA-A*0206 (human); assay: competition with 125I-labelled standard peptide 941.01 for purified HLA-A*0206, gel filtration
[22] = target: HLA-A*0202 (human); assay: competition with 125I-labelled standard peptide 941.01 for purified HLA-A*0202, gel filtration
[23] = target: HLA-A*0201 (human); assay: competition with 125I-labelled standard peptide 941.01 for purified HLA-A*0201, gel filtration
[24] = target: HLA-A*0203 (human); assay: competitive inhibition of 125I-labelled standard peptide binding to purified HLA, gel filtration; ratio = IC50 standard / IC50 test peptide; details: remark: other sources report otherwise
[25] = target: HLA-A*0201 (human); assay: as above; details: remark: other sources report otherwise
[26] = remark: other sources report otherwise

A binding affinity ratio (IC50 of standard peptide / IC50 of test peptide) [1] of 0.0003 was found for LVFRHGDR (modifications not checked) [LVFRHGDR (PAP, position 40, 8 amino acids)] in this work.

A binding affinity ratio (IC50 of standard peptide / IC50 of test peptide) [1] of 0.007 was found for MSLLKNRFLR (modifications not checked) [… (PSA, position 99, 10 amino acids)] in this work.

A binding affinity ratio (IC50 of standard peptide / IC50 of test peptide) [1] of 0.0005 was found for NFTEIASKF (modifications not checked) [… (PSM, position 638, 9 amino acids)] in this work.

A binding affinity ratio (IC50 of standard peptide / IC50 of test peptide) [1] of 0.0006 was found for NLLHETDSA (modifications not checked) [… (PSM, position 3, 9 amino acids)] in this work.

A binding affinity ratio [2] of 0.0005 was found for VLPFDCRDYA (modifications not checked) [PSM 592 peptide …] in this work.

A binding affinity ratio [2] of 0.0002 was found for VLTAAHCIR (modifications not checked) [PSA 56 peptide …] in this work.

A binding affinity ratio [2, 26] of 0.0003 was found for VTKFMLCAGR (modifications not checked) [PSA 188 peptide …] in this work.

A binding affinity ratio [2] of 0.0006 was found for WATEDTMTK (modifications not checked) [PAP 226 peptide …] in this work.

An IC50 [3, 26] of 133 nM, an IC50 [4, 26] of 278 nM and an IC50 [5] of 2640 nM were found for ALFPPEGVSI (modifications not checked) [peptide 1419.6 (PAP.122)] in this work.

An IC50 [4, 26] of 238 nM, an IC50 [6, 26] of 47 nM and an IC50 [5] of 336 nM were found for PLLLWQPIPV (modifications not checked) [peptide 63.0042 (PAP.134.L2)] in this work.

An IC50 [7] of 60 nM, an IC50 [3] of 17 nM and an IC50 [4] of 25 nM were found for LLWQPIPVHV (modifications not checked) [peptide 1419.69 (PAP.136.V10)] in this work. The IC50 [6] was 1.8 nM.

An IC50 [7, 26] of 1820 nM and an IC50 [4, 26] of 263 nM were found for KLRELSELSV (modifications not checked) [peptide 63.0048 (PAP.234.V10)] in this work.

An IC50 [8] of 2160 nM, an IC50 [9] of 10 nM and an IC50 [10] of 8.6 nM were found for SLHLLSNDMCV (modifications not checked) [Peptide 1418.66 (HuK2.175.V11) …] in this work. For the same binder, the IC50 [11] was 0.8 nM and the IC50 [12] was 2310 nM.

An IC50 [13, 26] of 51 nM was found for FMLCAGLWV (modifications not checked) [Peptide 1418.22 … (HuK2.195.V9)] in this work.

An IC50 [14] of 17 nM, an IC50 [15] of 1.8 nM and an IC50 [16] of 3.9 nM were found for SLSLGFLFLV (modifications not checked) [Peptide 1419.52 … (PAP.13.V10)] in this work. It also gave an IC50 [13] of 42 nM.

An IC50 [14] of 9.6 nM and an IC50 [13] of 43 nM were found for LTFFWLDRSV (modifications not checked) [Peptide 1418.23 … (PAP.21.T2)] in this work.

A binding affinity ratio (ratio to standard peptide) [17] of 0.0001, a binding affinity ratio (ratio to standard peptide) [18] of 0.0001 and a binding affinity ratio (ratio to standard peptide) [19] of 0.001 were found for ITDVVKVL (modifications not checked) [ITDVVKVL (Kallikrein, position 132)] in this work. It also gave a binding affinity ratio (ratio to standard peptide) [20] of -0.0001.

A binding affinity ratio (ratio to standard peptide) [18, 26] of 0.0003, a binding affinity ratio (ratio to standard peptide) [19, 26] of 0.01 and a binding affinity ratio (ratio to standard peptide) [20, 26] of 0.0005 were found for ITSWGPEPCA (modifications not checked) [… (Kallikrein, position 226)] in this work.

A binding affinity ratio (ratio to standard peptide) [17] of 0.003, a binding affinity ratio (ratio to standard peptide) [18] of 0.0003 and a binding affinity ratio (ratio to standard peptide) [19] of 0.0036 were found for ITSWGSEPCA (modifications not checked) in this work. It also gave a binding affinity ratio (ratio to standard peptide) [20] of 0.0001.

A binding affinity ratio (ratio to standard peptide) [17, 26] of 0.0096, a binding affinity ratio (ratio to standard peptide) [18, 26] of 0.001 and a binding affinity ratio (ratio to standard peptide) [19, 26] of 0.012 were found for ITSWGSEPCAL (modifications not checked) in this work. The binding affinity ratio (ratio to standard peptide) [20, 26] was 0.0001.

A binding affinity ratio (IC50 of standard peptide / IC50 of test peptide) [21] of 0.0006, a binding affinity ratio (IC50 of standard peptide / IC50 of test peptide) [22] of 0.0006 and a binding affinity ratio (IC50 of standard peptide / IC50 of test peptide) [23] of -0.0001 were found for SIALSVGCT (modifications not checked) [… (Kallikrein, position 7)] in this work.

A binding affinity ratio [24] of 0.02 and a binding affinity ratio [25] of 0.005 were found for VLSIALSV (modifications not checked) [VLSIALSV (Kallikrein, position 5)] in this work.
